According to the DeepSol protein solubility set:

Test: soluble on expression in E. coli; label from the status in PepcDB or PDB records

| Sequence | soluble on expression in E. coli |
| --- | --- |
| MGSDKIHHHHHHMMQLQVNATEIKTVYEQQLFNGKNFHVFIYNKTESVTGLHQHDYYEFTLVLTGRYYQEINGKRVLLERGDFVFIPVGSNHQSFYEFGATRILNVGISKRFFEQHYLPLLPFCFVASQVYRANSTFLTYIETVIASLNFRGNGLDEFIEVVTFYIINRLRHYREEQVYDDIPQWLKATVEIMHDKTQFGEHALENMVRLSAKSQEYLTRATRRYYSKTPMQIINEIRINFAKKQLEMTNYSVTDIAYEAGYSSPSLFIKTFKKMTSFTPNSYRKRLTEINE | not soluble |
| MSLADKATIYIIDDDEIFQFITRKSFERLERNDNLFFFLNGEDALSSIKEAISGNKPSPDLIFLDINMPIMDGWDFLAELIKLEGEMKKTPQIYMVSSSIDDKDLIKSKTYNMIKDYIVKPIKDTHIKELLNNLNEGHHHHHH | soluble |
| EMYHHKKVLVLGLARSGVSAATIMHKLGAFVTVNDQKPFSENPEAQGLLEQGIKVICGSHPIELLDEGFELVIKNPGIPYNNPMIEKALKLKIPVI | not soluble |
| MGSDKIHHHHHHMERITILHTNDLHSHFENWPRIRRYLKTTRQQVMADGATVYTFDLGDHVDRVHPVSEATNGQQNIQLMNQIGYDGVTIGNNEGLGFVRAQLDHLYDHANFPVILGNLRIPDTHELPDWAIDHRLLTTAAGTRLLVLGLTAPYHLTYPLAGWQILDVQPTLAALLHRFAGQFDVCVLLSHLGLDVDRLLAKRFPQVTVIIGSHTHHLLPHGEHDHQSLLAAAGKFGRYIGKIELSITPDHQVKSAVASVTETATLPVADGDTAEITSLQDLGESILSEQRVANLPTAMEADPTGQPRLVREGLHAIAEYAGTQAAILNAGLFLQDLPSGVVNQNQLHQLLPHNMHVMTVTLSGYDLWRLVQEFELARLFLRRFPQKGMGFRGKIFGELNYLGLAYDAVTHQVTWRGEPLSPTRQYRIAMVDHYLFIPFFPTISIVGKNQILYDDLLREVFAQYLARHYPLT | not soluble |
| MGSDKIHHHHHHMPNNALLQIKQDTLSLIDDLKVICTSFGLGNDGNEYKIITQCFLYKFLCDKFEFLFEQEFPNQTIQDYKDFNKEEKEEFFITLTDKRLPKLAYDDLLNYLFEKHFNDNDLHLKLDIIFNRISSNNAELFNTTSTDKTTIALFESISQYINEESKRANFTRVLLDKLKKFNFKQAFLNLQNQQGYDFFAPIFEYLLKDYNNAGGGKYAEYYTPLSIASIIAKLLINEPTRNVKIYDPSAGTGTLLMALAHQIGTDSCTLYAQDISQKSLRMLKLNLILNDLTHSLRNAIEGNTLTNPYHSKDFKGKMDYIVSNPPFKLDFSNEHAEISQNKNDFFLGVPNIPKNNKSKMPIYTLFFQHCLNMLSNKGKGAIIVPTGFISAKSGVENKIIRHLVDERLVYGVVCMPSQVFANTGTNVSIIFFQKTPSAKEVVLIDASKLGEEYTENKNKKTRLRPSDIDLILETFQNKTKKSDFCALVSFDEITEKIIL | not soluble |
| MGSDKIHHHHHHDETDPILTQKNWDGTATYFQSSDEHGFSMYYKPQVGFVGDPMPFYDPVAKDFKVMYLQDYRPNPEATYHPIFGVATKDGATYESLGELISCGGRDEQDAAIGTGGTIYNPADKLYYTFYTGNKFKPSSDQNAQVVMVATSPDFKTWTKNRTFYLKGDTYGYDKNDFRDPFLFQTEDGVYHMLIATRKNGKGHIAEFTSADLKEWESAGTFMTMMWDRFYECPDVFKMGDWWYLIYSEQASFMRKVQYFKGRTLEDLKATTANDAGIWPDNREGMLDSRAFYAGKTASDGTNRYIWGWCPTRAGNDNGNVGDVEPEWAGNLVAQRLIQHEDGTLTLGVPDAIDRKYTSAQEVKVMAKDGNMIESGKTYTLGEGASVIFNRLKVHNKISFTVKTASNTDRFGISFVRGTDSASWYSIHVNADEGKANFEKDGDDAKYLFDNKFNIPADNEYRVTIYSDQSVCVTYINDQLSFTNRIYQMQKNPWSLCCYKGEITVSDVQVSTY | not soluble |
| MGRKKGLPEFEESAPDGFDPENPYKDPVAMVEMREHIVREKWIQIEKAKILREKVKWCYRVEGVNHYQKCRHLVQQYLDSTRGVGWGKDHRPISLHGPKPEAVEAE | not soluble |
| MTLSFRVNPEYAAMSEIVPGLFICGVSALSKDEMKKHKITHIINATTEVPNLRSLGDIQRTKLWLEDTPQTYIYPHLELQSDQIQALIADGGKVLVHCVAGVSRSASICLAFLLKYRCRNLREAYHLMKSKRSMVRPNLGFWRQLIAYEQNVKENAGSVRLVRDEAQPEQLLPDVYLNIAIPARPASPEQDPNMIPDEPRERRNSGFKSKFRPVLEPVMEMAEAVC | not soluble |
| MLPERVLEILREMKRERIKGASWLAKKGAEAFLTLAEELDESLLEDAIMELREEVVKVNPSMASLYNLARFIPVTNRRDILKSRALEFLRRMEEAKRELASIGAQLIDDGDVIITHSFSSTVLEIIRTAKERKKRFKVILTESSPDYEGLHLARELEFSGIEFEVITDAQMGLFCREASIAIVGADMITKDGYVVNKAGTYLLALACHENAIPFYVAAETYKFHPTLKSGDVMLMERDLIRGNVRIRNVLFDVTPWKYVRGIITELGIVIPPRDIQLEHHHHHH | not soluble |
| MAHHHHHHMQQQPRPVVAQYAYIELLPLRYTGPAPPPAPACMDPTPDEQYRRGVAEKRAALKQKEARRQMSSSGSGMLASLKSAVSQAVMTMEKGAADVSTRTESQVRQLEYQYDCDRFNLHFHELAENGEVLLADYRCSAMHSGLRVNGHVQITPHYLCFLAETTSSIAKTTDAVMGVFVAARHPTSANDEPRNRPVGIKQVIALADIVSIQPSVVLESI | soluble |
| MSHSAKKALLPLLAVATLAGLAGCATETSTALPVQQVESVNRPYSGVRSPIAVGKFDNRSSYMRGIFSDGVDRLGGQAKTILITHLQQTNRFNVLDRDNMSEIQQEAAIKGQAQRLKGADYVVTGDVTEFGRKEVGDRQLFGILGRGKSQIAYAKVALNIVNISTSEVVYSTQGAGEYALSNREVIGFGGTASYDSTLNGKVLDLAMREAVNKLVNAVDSGAWKPQNQ | not soluble |
| MSERLFVLSQHILPKLALTRLAGRFADWKGGGITTAAIRRFIARYNVDMGEAADSDPAAYATFNDFFTRALKPGVRPVADARLVCPVDGAVSQLGAIDSGRIFQAKGRDYSATALLAGDADLAARFADGHFATIYLSPRDYHRIHMPCAGRLLEMTYVPGDLYSVNPATARGVDRLFARNERVVCVFEDEQSQPFVMVLVGATIVGSMATVWHGVVNPPRRPAVEKWDYRGQDIRLAKGEEMGRFLLGSTVVLLYPAGPLKFNPQWQAASPVRMGEAMASLEHHHHHH | not soluble |
| MTIAQQERPVAASPYRFEAEMTSGLERVAAHHHDLTLTSVFQPIFSLSHMRAVGYEALLRAHDALDRPVSPLDVFGEAARHGEAAQVDRLAQALHLENFARFGAEREWLFLNVHPGVLTDPFQAAALFANLKRLEIPPRRIVLEVLEQRADDIERLADAVREFREQGFLIALDDFGAGHSNIERIWQLNPDIVKLDRIMLSHAQHRAGLTAILHGLVTLLHEAGKLVLIEGIETEHEAQIALACDADFVQGHFFGRP | not soluble |
| ASEKVEMNLVTSQGVGQSIGSVTITETDKGLEFSPDLKALPPGEHGFHIHAKGSCQPATKDGKASAAESAGGHLDPQNTGKHEGPEGAGHLGDLPALVVNNDGKATDAVIAPRLKSLDEIKDKALMVHVGGDNMSDQPKPLGGGGERYACGVIK | soluble |
| MYDVLDSQSVLEVLRPVQDPELRKSLVELNMIRNVKIDGGQVSFTLVLTTPACPLREFIVEDCQRAVKKLPGVTDVSVEVTAETPQQKSLPDRNGVPGVKNIIAISSGKGGVGKSTVAVNVAVALAQTGAKVGLLDADIYGPNDPTMLGLGDAQIVVRSTEKGEVLEPAFNHGVKLVSMGFLIDRDQPVIWRGPMLNGVIRQFLYQVEWGELDYLIVDMPPGTGDAQLTLTQAVPMSGAVIVTTPQNVALLDSRKGLRMFQQMNVAVLGIVENMSYFIPPDMPDKHYDIFGSGGGSKTAAELGVPLLGCIPLEISTRIGGDNGVPIVVADPDSASAKALKAIALTIAGKVSVAALTLEHHHHHH | soluble |
| MILLIDNYDSFTFNLEQYLAEFSEVVVKRNDAADLIKIAALADGIVLSPGPGKPSDAGLLEEVVAKFAKEKPLLGICLGHQAIGEVFGGEVKRAAKIRHGKVSTMRQTAGAIFANLPEEMPVMRYHSLIVDKNTLPDVLEVLAIATDDSEVMAMKVKDYPVYGLQFHPESIGTNDGKQMMENFIHIVEGARENGNLTTKSI | not soluble |
